The record followed here is patent publication US20230357447A1 (JANUX THERAPEUTICS, published 2023).

The target in assay [1] is T1, Anti-CD28 scFv (VH-linker 1-VL) (biotinylated for capture on neutravidin plates). Briefly: phage ELISA, scFv captured on plate.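 Further: crude clonal phage supernatants added to wells preincubated with soluble CD28 or with blocking buffer only, bound phage read out by HRP-linked anti-M13 antibody.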 Background: In an ELISA, binding on a coated surface is turned into a signal by an enzyme label.
Procedure: (§1) Clonal phage were harvested as crude supernatants and screened via standard enzyme linked immunosorbent assays (ELISAs). […] Prior to the addition of clonal phage, wells were incubated with blocking buffer and CD28 soluble protein or blocking buffer alone. Without washing or aspirating, clonal phage supernatants were then added to the wells and incubated for a short time. Wells were then washed followed by detection of bound phage using a horse radish peroxidase conjugated anti-M13 antibody.
For assay [2], the target named is T1, Anti-CD28 scFv (VH-linker 1-VL). Briefly: phage ELISA, scFv captured on plate, competitor soluble CD28.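 Further: crude clonal phage supernatants added to wells pre-incubated with soluble CD28 or with blocking buffer only as control, bound phage read out with HRP-linked anti-M13 antibody.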
Procedure: as §1

T1 sequence (scFv, as listed by the source): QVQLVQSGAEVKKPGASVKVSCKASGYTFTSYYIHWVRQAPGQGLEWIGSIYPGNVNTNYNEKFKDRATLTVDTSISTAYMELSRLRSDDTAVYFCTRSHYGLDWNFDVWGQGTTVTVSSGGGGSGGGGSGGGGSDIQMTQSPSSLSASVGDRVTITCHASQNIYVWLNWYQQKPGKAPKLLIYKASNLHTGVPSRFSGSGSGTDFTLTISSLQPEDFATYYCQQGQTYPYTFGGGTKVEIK

B1: Phage-117 (peptide)
peptide: MDWCPRYLWFECFS
For B1, in assay [1], the “Phage binding ELISA CD28 scFv signal” value was 2.46. For the same molecule, the “Phage binding ELISA CD28 scFv signal in presence of CD28” value in assay [2] was 0.235.

B2: Phage-123 (peptide)
peptide: MDWCPIHLWNECFA
For the molecule B2, the “Phage binding ELISA CD28 scFv signal” value in assay [1] was determined as 2.4. Moreover, the “Phage binding ELISA CD28 scFv signal in presence of CD28” value in assay [2] amounted to 0.203.

B3: Phage-122 (peptide)
peptide: MDWCPRDLWDQCYA
As to B3, in assay [1], the “Phage binding ELISA CD28 scFv signal” value worked out at 2.41. Further, the “Phage binding ELISA CD28 scFv signal in presence of CD28” value in assay [2] turned out to be 0.201.

B4: Phage-154 (peptide)
peptide: MDWCPRDLWNVCFA
Take B4: the “Phage binding ELISA CD28 scFv signal” value in assay [1] came to 1.38. Besides, in assay [2], the “Phage binding ELISA CD28 scFv signal in presence of CD28” value was 0.145.

B5: Phage-149 (peptide)
peptide: MDWCPRDLWAVCFA
For the molecule B5, the “Phage binding ELISA CD28 scFv signal” value in assay [1] is 1.67. Also, the “Phage binding ELISA CD28 scFv signal in presence of CD28” value in assay [2] turned out to be 0.089.

B6: Phage-169 (peptide)
peptide: MDWCPRDLWNVCFN
For the molecule B6, the “Phage binding ELISA CD28 scFv signal” value in assay [1] was determined as 0.74. Further, the “Phage binding ELISA CD28 scFv signal in presence of CD28” value in assay [2] was 0.108.

B7: Phage-139 (peptide)
peptide: MDWCPRDLWDVCFA
Take B7: the “Phage binding ELISA CD28 scFv signal” value in assay [1] is 2.16. Also, in assay [2], the “Phage binding ELISA CD28 scFv signal in presence of CD28” value came to 0.28.

B8: Phage-128 (peptide)
peptide: MDWCPRDLWIECFF
As for B8, the “Phage binding ELISA CD28 scFv signal” value in assay [1] came to 2.37. The “Phage binding ELISA CD28 scFv signal in presence of CD28” value in assay [2] stood at 0.137.

B9: Phage-120 (peptide)
peptide: MDWCPRDLWHACFS
Consider B9, for which the “Phage binding ELISA CD28 scFv signal” value in assay [1] is 2.41. Further, the “Phage binding ELISA CD28 scFv signal in presence of CD28” value in assay [2] was 0.173.

B10: Phage-143 (peptide)
peptide: LDWCPLNLWDLCYF
Consider B10, for which the “Phage binding ELISA CD28 scFv signal” value in assay [1] was 2.03. Also, the “Phage binding ELISA CD28 scFv signal in presence of CD28” value in assay [2] was 0.095.

B11: Phage-127 (peptide)
peptide: MDWCPRALWNECFA
As to B11, in assay [1], the “Phage binding ELISA CD28 scFv signal” value worked out at 2.38. The “Phage binding ELISA CD28 scFv signal in presence of CD28” value in assay [2] is 0.375.

B12: Phage-137 (peptide)
peptide: MDWCPRYLWHECFH
Consider B12, for which the “Phage binding ELISA CD28 scFv signal” value in assay [1] is 2.19. Further, the “Phage binding ELISA CD28 scFv signal in presence of CD28” value in assay [2] was determined as 0.308.

B13: Phage-152 (peptide)
peptide: MDWCPKYLWDKCFH
With B13, the “Phage binding ELISA CD28 scFv signal” value in assay [1] was 1.54. Further, the “Phage binding ELISA CD28 scFv signal in presence of CD28” value in assay [2] came to 0.109.

B14: Phage-130 (peptide)
peptide: MDWCPRYLWDACFF
In the case of B14, the “Phage binding ELISA CD28 scFv signal” value in assay [1] was determined as 2.34. The “Phage binding ELISA CD28 scFv signal in presence of CD28” value in assay [2] came to 0.168.

B15: Phage-119 (peptide)
peptide: MDWCPRYLWHMCYS
With B15, the “Phage binding ELISA CD28 scFv signal” value in assay [1] is 2.42. The “Phage binding ELISA CD28 scFv signal in presence of CD28” value in assay [2] stood at 1.17.

B16: Phage-142 (peptide)
peptide: MDWCPVILWDFCFN
Turning to B16, the “Phage binding ELISA CD28 scFv signal” value in assay [1] was 2.03. The “Phage binding ELISA CD28 scFv signal in presence of CD28” value in assay [2] stood at 0.173.

B17: Phage-136 (peptide)
peptide: MHWCPIYLWDECFN
Take B17: the “Phage binding ELISA CD28 scFv signal” value in assay [1] is 2.23. For the same molecule, the “Phage binding ELISA CD28 scFv signal in presence of CD28” value in assay [2] was 0.193.

B18: Phage-180 (peptide)
peptide: MHWCPRYLWDECFN
Regarding B18, in assay [1], the “Phage binding ELISA CD28 scFv signal” value amounted to 0.55. The “Phage binding ELISA CD28 scFv signal in presence of CD28” value in assay [2] worked out at 0.127.

B19: Phage-131 (peptide)
peptide: MDWCPRSLWIYCFN
As for B19, in assay [1], the “Phage binding ELISA CD28 scFv signal” value was 2.34. In addition, in assay [2], the “Phage binding ELISA CD28 scFv signal in presence of CD28” value worked out at 0.401.

B20: Phage-148 (peptide)
peptide: MHWCPEYLWNECFA
On to B20, for which the “Phage binding ELISA CD28 scFv signal” value in assay [1] turned out to be 1.69. Besides, in assay [2], the “Phage binding ELISA CD28 scFv signal in presence of CD28” value worked out at 0.092.

B21: Phage-138 (peptide)
peptide: MDWCPTNLWHECFA
As to B21, the “Phage binding ELISA CD28 scFv signal” value in assay [1] turned out to be 2.16. The “Phage binding ELISA CD28 scFv signal in presence of CD28” value in assay [2] amounted to 0.096.

B22: Phage-118 (peptide)
peptide: MDWCPRHLWDECFF
In the case of B22, the “Phage binding ELISA CD28 scFv signal” value in assay [1] is 2.46. Also, the “Phage binding ELISA CD28 scFv signal in presence of CD28” value in assay [2] turned out to be 0.663.

B23: Phage-133 (peptide)
peptide: MDWCPRFLWDECFF
As to B23, the “Phage binding ELISA CD28 scFv signal” value in assay [1] was 2.28. Further, the “Phage binding ELISA CD28 scFv signal in presence of CD28” value in assay [2] was determined as 0.246.

B24: Phage-161 (peptide)
peptide: MDWCPRHLWDQCFA
With B24, the “Phage binding ELISA CD28 scFv signal” value in assay [1] worked out at 1.12. Moreover, in assay [2], the “Phage binding ELISA CD28 scFv signal in presence of CD28” value is 0.144.

B25: Phage-153 (peptide)
peptide: MDWCPRHLWDLCFF
For the molecule B25, the “Phage binding ELISA CD28 scFv signal” value in assay [1] worked out at 1.4. The “Phage binding ELISA CD28 scFv signal in presence of CD28” value in assay [2] is 0.182.

B26: Phage-166 (peptide)
peptide: MDWCPRHLWDLCFA
B26: in assay [1], the “Phage binding ELISA CD28 scFv signal” value was found to be 0.925. Moreover, in assay [2], the “Phage binding ELISA CD28 scFv signal in presence of CD28” value came out at 0.096.

B27: Phage-145 (peptide)
peptide: MDWCPKHLWIECFA
Turning to B27, in assay [1], the “Phage binding ELISA CD28 scFv signal” value came out at 1.98. Also, the “Phage binding ELISA CD28 scFv signal in presence of CD28” value in assay [2] turned out to be 0.132.

B28: Phage-151 (peptide)
peptide: MDFCPISLWHECFF
As to B28, in assay [1], the “Phage binding ELISA CD28 scFv signal” value came out at 1.58. Also, the “Phage binding ELISA CD28 scFv signal in presence of CD28” value in assay [2] is 0.129.

B29: Phage-211 (peptide)
peptide: MDWCPRNMWTVCFL
Turning to B29, the “Phage binding ELISA CD28 scFv signal” value in assay [1] is 1.12.

B30: Phage-140 (peptide)
peptide: MDWCPMDLWDVCFN
For the molecule B30, the “Phage binding ELISA CD28 scFv signal” value in assay [1] is 2.15. Further, the “Phage binding ELISA CD28 scFv signal in presence of CD28” value in assay [2] is 0.263.

B31: Phage-121 (peptide)
peptide: MDWCPRDLWHVCFF
Consider B31, for which the “Phage binding ELISA CD28 scFv signal” value in assay [1] came out at 2.41. Moreover, the “Phage binding ELISA CD28 scFv signal in presence of CD28” value in assay [2] amounted to 0.268.

B32: Phage-178 (peptide)
peptide: LDWCPRDLWHVCFF
With B32, the “Phage binding ELISA CD28 scFv signal” value in assay [1] came out at 0.61. Moreover, in assay [2], the “Phage binding ELISA CD28 scFv signal in presence of CD28” value amounted to 0.105.

B33: Phage-135 (peptide)
peptide: MDWCPKFLWHECFS
In the case of B33, the “Phage binding ELISA CD28 scFv signal” value in assay [1] was determined as 2.28. In addition, in assay [2], the “Phage binding ELISA CD28 scFv signal in presence of CD28” value is 0.142.

B34: Phage-150 (peptide)
peptide: MDWCPRHLWNVCFS
Turning to B34, in assay [1], the “Phage binding ELISA CD28 scFv signal” value amounted to 1.61. Moreover, the “Phage binding ELISA CD28 scFv signal in presence of CD28” value in assay [2] worked out at 0.176.

B35: Phage-204 (peptide)
peptide: MDWCPRHMWNVCFS
Turning to B35, the “Phage binding ELISA CD28 scFv signal” value in assay [1] amounted to 2.25. The “Phage binding ELISA CD28 scFv signal in presence of CD28” value in assay [2] turned out to be 0.13.

B36: Phage-125 (peptide)
peptide: MDWCPVSLWHVCFY
On to B36, for which the “Phage binding ELISA CD28 scFv signal” value in assay [1] was 2.4. In addition, the “Phage binding ELISA CD28 scFv signal in presence of CD28” value in assay [2] worked out at 0.409.

B37: Phage-126 (peptide)
peptide: MDWCPRFLWNECFN
B37: the “Phage binding ELISA CD28 scFv signal” value in assay [1] was 2.4. Also, in assay [2], the “Phage binding ELISA CD28 scFv signal in presence of CD28” value amounted to 0.503.

B38: Phage-144 (peptide)
peptide: MDWCPRHLWYACFN
Consider B38, for which the “Phage binding ELISA CD28 scFv signal” value in assay [1] was 2.01. In addition, in assay [2], the “Phage binding ELISA CD28 scFv signal in presence of CD28” value was found to be 0.159.

B39: Phage-134 (peptide)
peptide: MDWCPSYLWHECFA
As to B39, in assay [1], the “Phage binding ELISA CD28 scFv signal” value was determined as 2.28. Also, the “Phage binding ELISA CD28 scFv signal in presence of CD28” value in assay [2] was determined as 0.198.

B40: Phage-155 (peptide)
peptide: MHWCPLHLWNECYH
As for B40, the “Phage binding ELISA CD28 scFv signal” value in assay [1] was 1.37. For the same molecule, the “Phage binding ELISA CD28 scFv signal in presence of CD28” value in assay [2] stood at 0.113.

B41: Phage-146 (peptide)
peptide: MDWCPRHLWSECFY
In the case of B41, the “Phage binding ELISA CD28 scFv signal” value in assay [1] is 1.92. Also, the “Phage binding ELISA CD28 scFv signal in presence of CD28” value in assay [2] is 0.199.

B42: Phage-132 (peptide)
peptide: MDWCPTYLWFECFN
Turning to B42, the “Phage binding ELISA CD28 scFv signal” value in assay [1] is 2.33. The “Phage binding ELISA CD28 scFv signal in presence of CD28” value in assay [2] was 0.224.

B43: Phage-129 (peptide)
peptide: MDWCPSYLWTVCFA
With B43, in assay [1], the “Phage binding ELISA CD28 scFv signal” value came to 2.34. For the same molecule, in assay [2], the “Phage binding ELISA CD28 scFv signal in presence of CD28” value was 0.096.

B44: Phage-124 (peptide)
peptide: MDWCPRPLWDMCFF
In the case of B44, the “Phage binding ELISA CD28 scFv signal” value in assay [1] was determined as 2.4. Besides, the “Phage binding ELISA CD28 scFv signal in presence of CD28” value in assay [2] came out at 0.138.

B45: Phage-141 (peptide)
peptide: MDWCPRSLWNVCFF
Turning to B45, the “Phage binding ELISA CD28 scFv signal” value in assay [1] came out at 2.13. The “Phage binding ELISA CD28 scFv signal in presence of CD28” value in assay [2] stood at 0.356.

B46: Phage-147 (peptide)
peptide: MHWCPRDLWVVCFN
Turning to B46, the “Phage binding ELISA CD28 scFv signal” value in assay [1] was determined as 1.83. Besides, in assay [2], the “Phage binding ELISA CD28 scFv signal in presence of CD28” value is 0.112.
